The source of these data is FireProtDB (doi:10.1002/prot.1088).

First the molecules themselves.
B1: Lysozyme C, P61626 (parent)
chain: MKALIVLGLVLLSVTVQGKVFERCELARTLKRLGMDGYRGISLANWMCLAKWESGYNTRATNYNAGDRSTDYGIFQINSRYWCNDGKTPGAVNACHLSCSALLQDNIADAVACAKRVVRDPQGIRAWVAWRNRCQNRDVRQYVQGCGV

Where “and” joins values, the source holds several entries; their conditions need not be identical. Identical values can stand only once.

In one data set the parent is B1. As to conditions: Homo sapiens; pH 2.7; 64.9 °C; Thermal; DSC; Gly-HCl 0.05 M; reversible: yes; structure 1LZ1; whole UniProt chain shown.
On to N136G, for which the “ddG of mutation (higher = less stable)” value was -0.05 kcal/mol.
On the same count and under the same terms, in the case of N136A it was -0.19 kcal/mol; in that of Q76A, -0.91 kcal/mol; in that of R39G, -1.15 kcal/mol.
The same measure, in the same setting: in the case of R68A it was -0.43 kcal/mol; in that of H96A, 0.14 kcal/mol; in that of Y56G, 2.32 kcal/mol.
Same read-out and setting: in the case of Y56A it was 2.49 kcal/mol.

The same data set, now with this note: Homo sapiens; pH 2.7; Thermal; DSC; Gly-HCl 0.05 M; reversible: yes; structure 1LZ1; whole UniProt chain shown.
For the variant N136G, the melting temperature (Tm) was 65.1 °C; the “change of melting temperature, mutant - wild type (higher = more stable)” value (“change of melting temperature, mutant” for short) worked out at 0.2 °C; the “heat capacity change of unfolding” value came to 1.65 kcal/mol/K; the “unfolding enthalpy (calorimetric)” value was determined as 101 kcal/mol.
Taken in the same sequence, the figures for N136A were 65.5 °C, 0.6 °C, 1.24 kcal/mol/K and 104 kcal/mol.
For the variant Q76A, the midpoint of thermal melting (Tm) was 67.8 °C and 68 °C; the “change of melting temperature, mutant” value was 3.1 °C; the “heat capacity change of unfolding” value came to 1.65 kcal/mol/K; the “unfolding enthalpy (calorimetric)” value was 104 kcal/mol and 98.2 kcal/mol. Further, the “unfolding enthalpy (van 't Hoff)” value was 113 kcal/mol.
R39A: the Tm came out at 69.4 °C; the “change of melting temperature, mutant” value turned out to be 4.5 °C; the “heat capacity change of unfolding” value is 1.82 kcal/mol/K; the “unfolding enthalpy (calorimetric)” value stood at 96.6 kcal/mol.
The like results for R39G were, in that order, 68.6 °C, 3.7 °C, 1.74 kcal/mol/K and 103 kcal/mol.
The like results for R68A were, in that order, 66.3 °C, 1.4 °C, 1.51 kcal/mol/K and 104 kcal/mol.
As for H96A, the Tm was 64.3 °C and 64.4 °C; the “change of melting temperature, mutant” value is -0.5 °C; the “heat capacity change of unfolding” value stood at 1.51 kcal/mol/K; the “unfolding enthalpy (calorimetric)” value worked out at 103 kcal/mol. Moreover, the “unfolding enthalpy (van 't Hoff)” value was determined as 112 kcal/mol.
In the case of Y56G, the midpoint of thermal melting (Tm) was found to be 56.7 °C; the “change of melting temperature, mutant” value was -8.2 °C; the “heat capacity change of unfolding” value turned out to be 0.96 kcal/mol/K; the “unfolding enthalpy (calorimetric)” value turned out to be 96.8 kcal/mol.
Consider Y56A, for which the Tm was 56 °C; the “change of melting temperature, mutant” value is -8.9 °C; the “heat capacity change of unfolding” value is 0.98 kcal/mol/K; the “unfolding enthalpy (calorimetric)” value was 96.8 kcal/mol.

Staying with this data set, now noted: Homo sapiens; pH 2.74; Thermal; DSC; Gly-HCl 0.05 M; reversible: yes; structure 1LZ1; whole UniProt chain shown.
Take N136G: the Tm was found to be 65.7 °C, the “unfolding enthalpy (calorimetric)” value was determined as 103 kcal/mol and the “unfolding enthalpy (van 't Hoff)” value is 110 kcal/mol.
As for N136A, the Tm was found to be 66.2 °C, the “unfolding enthalpy (calorimetric)” value was determined as 107 kcal/mol and the “unfolding enthalpy (van 't Hoff)” value was 112 kcal/mol.

The data set is the same for the next values; noted with them: Homo sapiens; pH 2.95; Thermal; DSC; Gly-HCl 0.05 M; reversible: yes; structure 1LZ1; whole UniProt chain shown.
Regarding N136G, the melting temperature (Tm) turned out to be 69.3 °C, the “unfolding enthalpy (calorimetric)” value was found to be 107 kcal/mol and the “unfolding enthalpy (van 't Hoff)” value came to 115 kcal/mol.

Still in this data set, the particulars now being: Homo sapiens; pH 3.1; Thermal; DSC; Gly-HCl 0.05 M; reversible: yes; structure 1LZ1; whole UniProt chain shown.
Turning to N136G, the Tm came to 71.6 °C, the “unfolding enthalpy (calorimetric)” value was determined as 113 kcal/mol and the “unfolding enthalpy (van 't Hoff)” value came out at 119 kcal/mol.
As for Q76A, the midpoint of thermal melting (Tm) is 75.1 °C, the “unfolding enthalpy (calorimetric)” value came to 115 kcal/mol and the “unfolding enthalpy (van 't Hoff)” value came to 123 kcal/mol.

Staying with this data set, now noted: Homo sapiens; pH 2.51; Thermal; DSC; Gly-HCl 0.05 M; reversible: yes; structure 1LZ1; whole UniProt chain shown.
As for N136A, the midpoint of thermal melting (Tm) stood at 62.1 °C, the “unfolding enthalpy (calorimetric)” value was determined as 99.9 kcal/mol and the “unfolding enthalpy (van 't Hoff)” value is 106 kcal/mol.
On to R39A, for which the midpoint of thermal melting (Tm) turned out to be 66.1 °C, the “unfolding enthalpy (calorimetric)” value is 98.7 kcal/mol and the “unfolding enthalpy (van 't Hoff)” value was determined as 107 kcal/mol.

The same data set, now with this note: Homo sapiens; pH 2.87; Thermal; DSC; Gly-HCl 0.05 M; reversible: yes; structure 1LZ1; whole UniProt chain shown.
N136A: the midpoint of thermal melting (Tm) amounted to 68.6 °C, the “unfolding enthalpy (calorimetric)” value was 109 kcal/mol and the “unfolding enthalpy (van 't Hoff)” value came to 117 kcal/mol.

The same data set, now with this note: Homo sapiens; pH 3.02; Thermal; DSC; Gly-HCl 0.05 M; reversible: yes; structure 1LZ1; whole UniProt chain shown.
Take N136A: the Tm came out at 70.9 °C, the “unfolding enthalpy (calorimetric)” value was found to be 111 kcal/mol and the “unfolding enthalpy (van 't Hoff)” value was found to be 118 kcal/mol.

The same data set, now with this note: Homo sapiens; pH 2.5; Thermal; DSC; Gly-HCl 0.05 M; reversible: yes; structure 1LZ1; whole UniProt chain shown.
Take Q76A: the Tm amounted to 64.5 °C, the “unfolding enthalpy (calorimetric)” value is 97 kcal/mol and the “unfolding enthalpy (van 't Hoff)” value is 103 kcal/mol.
The like results for R39G were, in that order, 64.6 °C, 102 kcal/mol and 107 kcal/mol.
As for R68A, the melting temperature (Tm) came out at 62.8 °C, the “unfolding enthalpy (calorimetric)” value was 101 kcal/mol and the “unfolding enthalpy (van 't Hoff)” value is 108 kcal/mol.
For the variant H96A, the Tm was determined as 61.1 °C, the “unfolding enthalpy (calorimetric)” value was found to be 97.5 kcal/mol and the “unfolding enthalpy (van 't Hoff)” value was 107 kcal/mol.
Taken in the same sequence, the figures for Y56G were 53 °C, 85.8 kcal/mol and 87 kcal/mol.

The data set is the same for the next values; noted with them: Homo sapiens; pH 2.71; Thermal; DSC; Gly-HCl 0.05 M; reversible: yes; structure 1LZ1; whole UniProt chain shown.
In the case of R39A, the melting temperature (Tm) turned out to be 69.8 °C, the “unfolding enthalpy (calorimetric)” value amounted to 106 kcal/mol and the “unfolding enthalpy (van 't Hoff)” value is 113 kcal/mol.
Consider R68A, for which the melting temperature (Tm) turned out to be 66.6 °C, the “unfolding enthalpy (calorimetric)” value is 106 kcal/mol and the “unfolding enthalpy (van 't Hoff)” value was found to be 113 kcal/mol.

The data set is the same for the next values; noted with them: Homo sapiens; pH 3.23; Thermal; DSC; Gly-HCl 0.05 M; reversible: yes; structure 1LZ1; whole UniProt chain shown.
As for R39A, the melting temperature (Tm) turned out to be 77.6 °C, the “unfolding enthalpy (calorimetric)” value was determined as 120 kcal/mol and the “unfolding enthalpy (van 't Hoff)” value worked out at 129 kcal/mol.

The data set is the same for the next values; noted with them: Homo sapiens; pH 2.69; Thermal; DSC; Gly-HCl 0.05 M; reversible: yes; structure 1LZ1; whole UniProt chain shown.
Regarding R39G, the Tm was 68.2 °C, the “unfolding enthalpy (calorimetric)” value came to 109 kcal/mol and the “unfolding enthalpy (van 't Hoff)” value worked out at 113 kcal/mol.

Staying with this data set, now noted: Homo sapiens; pH 2.81; Thermal; DSC; Gly-HCl 0.05 M; reversible: yes; structure 1LZ1; whole UniProt chain shown.
R39G: the midpoint of thermal melting (Tm) amounted to 70.9 °C, the “unfolding enthalpy (calorimetric)” value is 113 kcal/mol and the “unfolding enthalpy (van 't Hoff)” value was 116 kcal/mol.

The same data set, now with this note: Homo sapiens; pH 2.84; Thermal; DSC; Gly-HCl 0.05 M; reversible: yes; structure 1LZ1; whole UniProt chain shown.
For the variant R68A, the Tm was found to be 69.1 °C, the “unfolding enthalpy (calorimetric)” value was 109 kcal/mol and the “unfolding enthalpy (van 't Hoff)” value was found to be 117 kcal/mol.

The same data set, now with this note: Homo sapiens; pH 3; Thermal; DSC; Gly-HCl 0.05 M; reversible: yes; structure 1LZ1; whole UniProt chain shown.
Consider R68A, for which the Tm is 70.9 °C, the “unfolding enthalpy (calorimetric)” value was 114 kcal/mol and the “unfolding enthalpy (van 't Hoff)” value was 121 kcal/mol.
Taken in the same sequence, the figures for H96A were 69.5 °C, 110 kcal/mol and 117 kcal/mol.
The like results for Y56A were, in that order, 61.7 °C, 94.4 kcal/mol and 96.3 kcal/mol.

Still in this data set, the particulars now being: Homo sapiens; pH 2.78; Thermal; DSC; Gly-HCl 0.05 M; reversible: yes; structure 1LZ1; whole UniProt chain shown.
Turning to Y56G, the midpoint of thermal melting (Tm) worked out at 58.5 °C, the “unfolding enthalpy (calorimetric)” value amounted to 90.1 kcal/mol and the “unfolding enthalpy (van 't Hoff)” value is 92.3 kcal/mol.

The data set is the same for the next values; noted with them: Homo sapiens; pH 3.24; Thermal; DSC; Gly-HCl 0.05 M; reversible: yes; structure 1LZ1; whole UniProt chain shown.
As for Y56G, the Tm came out at 65.6 °C, the “unfolding enthalpy (calorimetric)” value is 97.8 kcal/mol and the “unfolding enthalpy (van 't Hoff)” value stood at 99.7 kcal/mol.

Still in this data set, the particulars now being: Homo sapiens; pH 2.72; Thermal; DSC; Gly-HCl 0.05 M; reversible: yes; structure 1LZ1; whole UniProt chain shown.
Turning to Y56A, the Tm was found to be 56.3 °C, the “unfolding enthalpy (calorimetric)” value is 88 kcal/mol and the “unfolding enthalpy (van 't Hoff)” value worked out at 89.2 kcal/mol.

Staying with this data set, now noted: Homo sapiens; pH 3.18; Thermal; DSC; Gly-HCl 0.05 M; reversible: yes; structure 1LZ1; whole UniProt chain shown.
As to Y56A, the Tm amounted to 65 °C, the “unfolding enthalpy (calorimetric)” value stood at 96.3 kcal/mol and the “unfolding enthalpy (van 't Hoff)” value worked out at 97.5 kcal/mol.
